We go through 141 substances from the supplement of paper PMC12042874.

± gives the uncertainty stated by the source.

A short description of the data set: amyloid nucleation score (Sup35N fusion, yeast selection) (log enrichment); library NNK2; higher = more nucleation; inactive = no reads after selection. The method in brief: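 The nucleation score is the log enrichment of output over input reads, calculated with DiMSum and centred on the mode score of non-aggregating sequences. Sequences with under 100 input reads were excluded. Reads came from Illumina sequencing of plasmid inserts from psi-negative yeast expressing Sup35N fused to peptides of 20 random codons, induced 24 hours with 100 μM copper sulfate and grown 7 days at 30°C without adenine and uracil.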
The substance SSNNMEIIYVFFLCREAQKL had an amyloid nucleation score of -0.78 ± 1.1.

LLLHSIQIYDMRR: the amyloid nucleation score is 5.53 ± 0.089.

On to PTSDALLKCSAPFCSVRPVP, for which the amyloid nucleation score was 0.138 ± 0.76.

For the substance SQSNMILYWADRF, the amyloid nucleation score is 5.33 ± 0.057.

Turning to KYSTISRCAYSRIDVCGKKK, the amyloid nucleation score came to 0.488 ± 0.33.

VSYVDESHFVNTKSDMPSVS displayed an amyloid nucleation score of -0.392 ± 0.63.

RIGTFWRGQDKLDVFKYGVV: the amyloid nucleation score was -0.236 ± 0.37.

As to VMYRCSRSALNLHVRRNWRW, the amyloid nucleation score came to 0.455 ± 0.65.

RCRILA showed an amyloid nucleation score of 2.51 ± 0.1.

Substance FFMGGMRASNMDYATSWLK came in with an amyloid nucleation score of 4.3 ± 0.099.

For WTDSHSKMRNFRPG, the amyloid nucleation score is -0.259 ± 0.49.

Substance ADRWYYMQPNTLCSNVTANA gave an amyloid nucleation score of 1.26 ± 0.37.

Regarding YFKRSGLSICRTGKLALGWH, the amyloid nucleation score entry is “inactive”.

With NHVCRIVTMFGVPSRSN, the amyloid nucleation score result was “inactive”.

Substance NLQLTFGS returned an amyloid nucleation score of -0.202 ± 0.21.

Consider IYGQCWVFQNLLRLRVSV, for which the amyloid nucleation score amounted to 0.119 ± 0.76.

With YAPLSTDPYILVHCIRPRLA, the amyloid nucleation score is -0.558 ± 1.

As for RYWLLKFNCVLWEISFCRTM, the amyloid nucleation score worked out at 5.89 ± 0.07.

Consider DLWGVI, for which the amyloid nucleation score was determined as 8.81 ± 0.026.

Regarding FGMYPVVGCLDRLYWMRLYA, the amyloid nucleation score is 0.539 ± 0.81.

Consider SRSWTLKFRLGGNVKQYCTW, for which the amyloid nucleation score was 5.72 ± 0.091.

In turn, REWEVCGDCLVGNNGWFRWV showed an amyloid nucleation score of 0.409 ± 0.47.

KLSLNVLGSRSERWLLLFSC: the amyloid nucleation score is -0.291 ± 0.79.

The substance KPDCVLTTGFTSSLRFIMKK came in with an amyloid nucleation score of -0.007 ± 0.55.

For the substance MNWTSVHLDDWSRILIHTYC, the amyloid nucleation score entry is “inactive”.

In turn, TVSLYIDYPSVLGFPWSY registered an amyloid nucleation score of -0.952 ± 0.55.

VKLHSVSYLIFLL gave an amyloid nucleation score of 4.8 ± 0.11.

In the case of DELDVFG, the amyloid nucleation score is -0.893 ± 0.44.

The substance RKYNGCSFQHYGLSVRTRSL showed an amyloid nucleation score of 2.37 ± 0.2.

SCSDMIKYHHTVELSLVSAT came in with an amyloid nucleation score of 0.295 ± 1.

On to LTGWMFISWSLTIPRPPTIE, for which the amyloid nucleation score is -0.849 ± 1.1.

The substance AFFACRNASSHTLWMLG displayed an amyloid nucleation score of 5.91 ± 0.07.

GICHWGLLFTACFIPWRMRG returned an amyloid nucleation score of 1.37 ± 0.32.

As to MCSSPRRNDKLNNGRFYSCS, the amyloid nucleation score is -1.11 ± 0.54.

In turn, WYHGSASCEYIGYVYPWHAA returned an amyloid nucleation score of 3.58 ± 0.064.

Substance FWVVIVAHSVSWLLLTWQLE returned an amyloid nucleation score of 0.553 ± 0.65.

EPNIGSVP: the amyloid nucleation score is -0.171 ± 0.55.

In the case of CFVQLCACRYTIRNWGFRWL, the amyloid nucleation score entry is “inactive”.

Consider WGEVRLCESMVCCLGRIQGR, for which the amyloid nucleation score is 4.1 ± 0.063.

With SCRVME, the amyloid nucleation score worked out at 0.292 ± 0.2.

ILVNLVVVIKSSYRLSKCRF showed an amyloid nucleation score of -0.67 ± 1.1.

Regarding VRMSLTLSFQVLAYWEGFIK, the amyloid nucleation score is -0.64 ± 0.49.

In turn, CYYMCAYRGVAK showed an amyloid nucleation score of 0.637 ± 0.36.

For the substance LMFWGCSGLRWLVVLSDNKA, the amyloid nucleation score amounted to 3.8 ± 0.097.

TMRFLVGFCLTNWDNLNASC registered an amyloid nucleation score of 3.67 ± 0.05.

Regarding CLSLFTSYV, the amyloid nucleation score turned out to be 0.415 ± 0.31.

For RKRRLMYLSGDNTQPFARLY, the amyloid nucleation score is -0.686 ± 1.1.

As for VPRKILFCLLACCRMRQACS, the amyloid nucleation score was found to be 0.67 ± 0.33.

ISETLASSVWRRCVSCGYVM came in with an amyloid nucleation score of 3.93 ± 0.075.

SYSDPETFISWVLVDWCLMS displayed an amyloid nucleation score of -0.753 ± 0.55.

The substance RNNRLTLVRVSFDVQCEPMV displayed an amyloid nucleation score of 0.468 ± 0.46.

For the substance CNYRVA, the amyloid nucleation score was determined as 0.276 ± 0.39.

Regarding YYQEHQTRLWIWSQHGLNAI, the amyloid nucleation score is 0.864 ± 0.19.

As to DSQKLAGVVSIKVSVANVLS, the amyloid nucleation score is 3.9 ± 0.11.

In the case of NQYLSMRTAHSGEVYQPLVF, the amyloid nucleation score is 0.859 ± 0.8.

Turning to DTLLSMAKRCLDSVFLGFPR, the amyloid nucleation score was -0.134 ± 0.55.

Turning to NYCNDGVGCYS, the amyloid nucleation score was found to be 4.82 ± 0.067.

As to LRFYAFRLDALSLISKSGVQ, the amyloid nucleation score stood at 1.08 ± 0.36.

For PREFGRLL, the amyloid nucleation score is -0.757 ± 0.35.

RRIINFQGHREEYGEMHTVM came in with an amyloid nucleation score of -0.449 ± 0.64.

For the substance VSYDVNIFWYPKKMS, the amyloid nucleation score entry was “inactive”.

Consider SRCGLLMVSPNAVPSGLAHR, for which the amyloid nucleation score turned out to be 1.18 ± 0.31.

INNLRSCLSMY yielded an amyloid nucleation score of 0.562 ± 0.57.

For GSLVQNVFTMDGGDYHMR, the amyloid nucleation score came to 0.307 ± 0.27.

Regarding ASYQRSCILRRFTFVSCILI, the amyloid nucleation score came to 1.56 ± 0.17.

TKTILRILSQFIYDSPLLEM came in with an amyloid nucleation score of -0.19 ± 1.1.

The substance ILANFFCGDRNCL showed an amyloid nucleation score of 7.128 ± 0.036.

The substance RLYVTSYIY returned an amyloid nucleation score of 3.26 ± 0.098.

Consider TWGPWTLMSVLSCGVYGSHG, for which the amyloid nucleation score came out at 4.3 ± 0.084.

On to DTLVHMLRYFGGTQPWYM, for which the amyloid nucleation score is -0.183 ± 0.53.

The substance ISFYFSAWDKTVQTRRYIDH had an amyloid nucleation score of -0.356 ± 0.33.

TLDVGLGAAQCVIGISGWYE: the amyloid nucleation score came out at 1.1 ± 0.15.

In turn, NTLVSVYEYFSMWGRSCRWS returned an amyloid nucleation score of 0.141 ± 0.61.

Regarding AVATGNTCSPVSVRKSLGQS, the amyloid nucleation score amounted to 1.87 ± 0.13.

Consider FCSHMLARTYLKCGREDR, for which the amyloid nucleation score was -0.337 ± 1.

ADYLRDSFQRWLMEVGLDRR returned an amyloid nucleation score of 1.44 ± 0.26.

As for DVLVSILITPRCHHA, the amyloid nucleation score entry is “inactive”.

Substance FSVSSLVAVMNNTHLVVSGG gave an amyloid nucleation score of 2.34 ± 0.081.

For the substance VCFGEQT, the amyloid nucleation score was found to be 0 ± 0.21.

Regarding LLKVF, the amyloid nucleation score is -1.01 ± 1.1.

As for AFYCQRDRVE, the amyloid nucleation score came out at 3.18 ± 0.099.

RGSYMVPWHVERIIGNSRVS returned an amyloid nucleation score of -0.899 ± 0.23.

As for VYWTKWGFLLVSSVKVLSLE, the amyloid nucleation score was -0.14 ± 1.

In turn, PKPTYTP gave an amyloid nucleation score of 0.292 ± 0.38.

Consider WWNTGCVGLMCICTLFSGSR, for which the amyloid nucleation score was determined as 8.985 ± 0.081.

Turning to FSRSYVPIMY, the amyloid nucleation score worked out at 0.759 ± 0.8.

For KSVSVGQVRTCPYSFISPVL, the amyloid nucleation score amounted to 0.247 ± 1.

Substance KVRGPSNNVSSQKAHDRFDS displayed an amyloid nucleation score of 0.277 ± 0.28.

RTSFRNVMTIMTSPHVVTFI gave an amyloid nucleation score of -0.149 ± 0.4.

Regarding NQNCLHTTCVCSRIVSDAAV, the amyloid nucleation score was found to be 6.483 ± 0.038.

In turn, NTANKFSLFKTGMVWVSFFT had an amyloid nucleation score of 2.88 ± 0.099.

PFRSS yielded an amyloid nucleation score of -0.415 ± 0.36.

Take VTLSGYRVPLTLWDFGRCLC: the amyloid nucleation score was -0.565 ± 0.35.

With SYLLSRYLRPKGYADNIVYA, the amyloid nucleation score entry was “inactive”.

Consider PQNSIPCFAIFTWAWSMKKL, for which the amyloid nucleation score result is “inactive”.

TMSQYLGNRCTTNGYSFGVS came in with an amyloid nucleation score of -0.272 ± 1.1.

The substance SVGGETITRWKCIWMTRRTE came in with an amyloid nucleation score of 1.77 ± 0.16.

With WGADSYYMCTKLLGSDCGSN, the amyloid nucleation score stood at 0.453 ± 0.66.

For the substance GFLQSGCPSTLLSLRKRAIL, the amyloid nucleation score was 0.307 ± 0.51.

WGCQLRSMQTMTRHR registered an amyloid nucleation score of 0.949 ± 0.74.

Consider ISSSSKVD, for which the amyloid nucleation score was -0.706 ± 0.29.

The substance SNGYYSNGPTLLHATTHVTV returned an amyloid nucleation score of -0.431 ± 0.64.

The substance AYMNWCTLKMRR registered an amyloid nucleation score of -0.063 ± 0.28.

Substance RYNTYML came in with an amyloid nucleation score of -1.33 ± 0.36.

EKVSFASFMS registered an amyloid nucleation score of -1.31 ± 0.78.

As to WSKQKVAT, the amyloid nucleation score is 0.814 ± 0.21.

For VWCAYWKWLNLSRFNEITAR, the amyloid nucleation score is -0.202 ± 0.23.

PGNCRSFCRS registered an amyloid nucleation score of 0.695 ± 0.47.

As for MSNRVCCNYVGSHVRYCVSK, the amyloid nucleation score was 4.913 ± 0.048.

IFIVYILCFFMREIFAPI registered an amyloid nucleation score of 3.77 ± 0.11.

As for TVLGRGLILWDVGGLSE, the amyloid nucleation score was -0.906 ± 0.34.

As for PICHLRGGSISRRSNFIQGC, the amyloid nucleation score is -1.12 ± 0.76.

Substance RGRCNVVSSLTFTIRSLWTV registered an amyloid nucleation score of 1.59 ± 0.13.

Consider DYPSKKGVVPPRLGISDKNV, for which the amyloid nucleation score worked out at 2.86 ± 0.049.

Consider CLAPFHYDQYCKWESDSVSR, for which the amyloid nucleation score is -0.438 ± 0.44.

With LNWFFLL, the amyloid nucleation score came out at 0.937 ± 0.26.

Substance KLIVMGTNPGRVGNGWKRKS showed an amyloid nucleation score of 0.53 ± 0.3.

Substance WAKSFHTALWASLMRGRKLH yielded an amyloid nucleation score of -0.44 ± 0.54.

With DYMTGV, the amyloid nucleation score entry was “inactive”.

Regarding VVAPTKLLFKLPMALYVFVG, the amyloid nucleation score was -0.299 ± 0.34.

For the substance ARCIQVMVIGISWRVGCMPT, the amyloid nucleation score turned out to be 0.521 ± 0.36.

As to HRVAVTKYATRYIPLIMLNW, the amyloid nucleation score was -0.354 ± 0.49.

In the case of FRIGHSHGYLLM, the amyloid nucleation score is -0.805 ± 1.1.

Consider SRCIFVFYS, for which the amyloid nucleation score came to 8.165 ± 0.059.

Substance GEFSLF returned an amyloid nucleation score of 0.2 ± 0.37.

As for YPPIISRLQY, the amyloid nucleation score result was “inactive”.

The substance YGSDALYWLVWVYV registered an amyloid nucleation score of -0.016 ± 0.48.

Take CMKEMLVMLTCYICVSKSLI: the amyloid nucleation score stood at 3.66 ± 0.079.

For NYYQR, the amyloid nucleation score is 0.025 ± 1.1.

As to SVSGIGWFGGEQHAWS, the amyloid nucleation score is -0.531 ± 0.79.

For LNVLKNT, the amyloid nucleation score is 0.187 ± 0.24.

AMTTRFCGVFLKGWL: the amyloid nucleation score came to 0.176 ± 0.64.

Substance YSGRSAWLMLCGRPVRR yielded an amyloid nucleation score of 1.11 ± 0.33.

As to VSEMPLLYR, the amyloid nucleation score stood at 0.769 ± 0.53.

Turning to ELNLNS, the amyloid nucleation score amounted to 0.695 ± 0.36.

Substance RFWPWLLVRPNFPMLSQ returned an amyloid nucleation score of 0.216 ± 0.37.

The substance DGVFRCKKRSSNFSDKSVCM came in with an amyloid nucleation score of 0.641 ± 0.74.

In turn, RIRSCTLMWT yielded an amyloid nucleation score of 0.807 ± 0.22.

QLRRFERMLSLVM: the amyloid nucleation score is 1.31 ± 0.3.

IAFFGLCMSRVSLGVLEMRL: the amyloid nucleation score was 2.21 ± 0.18.

As to SFIWKLYMLHWNWRSTEEGE, the amyloid nucleation score is -0.17 ± 0.65.
